5 molecules from US20230220067A1 (Johns Hopkins, published 2023) can be followed below.

Substitutions are numbered along the chain they refer to.

The target of assay [1] is T1, potassium two pore domain channel subfamily K member 9 (KCNK9) (human, UniProt Q9NPC2 1-374).
T1 construct: whole, on cells; also called human KCNK9
In words: flow cytometry on induced KCNK9-expressing HEK293 cells, anti-human Fc FITC secondary. An excerpt:
An anti-KCNK9 mouse monoclonal antibody having a VH amino acid sequence of SEQ ID NO: 1 and a VL amino acid sequence of SEQ ID NO: 2 (mu-mAb) was humanized using a method based on Queen et al., Proc. Natl. Acad. Sci. USA, 86: 10029-10033 (1989). The hybridoma antibody was sequenced after amplifying the antibody variable regions by RT-PCR with degenerate primers. The variable regions were fused with the human antibody IgG1 constant regions to produce a chimeric antibody. Antigen binding of the chimeric antibody was confirmed by staining of the KCNK9-expressing cells. HEK293 cells were stably transfected with KCNK9 expression vector under the tetracycline inducible promoter. After induction, the cells were incubated with various concentrations of chimeric KCNK9 antibody for 30 minutes, followed by secondary anti-human Fc FITC conjugate. Chimeric antibody binding was analyzed by flow cytometry.
Background: Flow cytometry measures light scatter and fluorescence of single cells or particles in a stream.

A further assay addresses human FcγIII (human, UniProt P08637 17-254). Kind of assay: cell-based or functional assay.
For assay [2], the target named is T1, potassium two pore domain channel …. Kind of assay: flow cytometry of KCNK9-expressing cells, anti-human Fc PE secondary. The text has this:
After antibody sequence analysis and structure modeling, the murine antibody CDRs (SEQ ID NOs: 3-8) were grafted into human antibody VK3-11 and VH1-3 frameworks. Critical murine antibody framework residues that support CDR conformation were identified and introduced into the human frameworks. Five variants of the humanized VH sequences (VH1-5; SEQ ID NOs: 9-13) and three variants of the humanized VL variants (VL1-3; SEQ ID NOs: 14-16) were designed and synthesized. All of the variable regions were cloned into a human IgG1 expression vector. The VHs and VLs were cross-matched to generate 15 humanized KCNK9 antibody clones. All humanized antibodies were produced by transient transfection in 293 cells and purified by Protein A chromatography. Antigen binding of the humanized KCNK9 antibodies was characterized by immunofluorescence staining of KCNK9-expressing cells.

T1 sequence (Q9NPC2 whole entry, the tested form may be a part): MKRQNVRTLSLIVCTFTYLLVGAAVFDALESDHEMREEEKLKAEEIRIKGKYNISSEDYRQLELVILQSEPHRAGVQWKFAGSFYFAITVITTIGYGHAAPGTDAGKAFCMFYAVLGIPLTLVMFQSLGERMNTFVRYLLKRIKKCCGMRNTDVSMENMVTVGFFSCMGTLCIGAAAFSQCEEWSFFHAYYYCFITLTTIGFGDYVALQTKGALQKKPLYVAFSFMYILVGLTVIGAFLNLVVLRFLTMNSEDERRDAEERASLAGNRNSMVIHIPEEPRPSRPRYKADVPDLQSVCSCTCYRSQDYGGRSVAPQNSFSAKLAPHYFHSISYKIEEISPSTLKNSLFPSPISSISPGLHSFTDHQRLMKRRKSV
Sequence of human FcγIII (P08637 17-254): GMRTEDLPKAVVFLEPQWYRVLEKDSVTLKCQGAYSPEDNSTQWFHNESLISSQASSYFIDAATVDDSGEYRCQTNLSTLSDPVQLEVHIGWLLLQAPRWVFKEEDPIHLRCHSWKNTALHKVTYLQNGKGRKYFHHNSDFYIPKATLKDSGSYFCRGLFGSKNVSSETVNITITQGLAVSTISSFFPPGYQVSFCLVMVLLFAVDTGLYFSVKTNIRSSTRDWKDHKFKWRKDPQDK

B1: chimeric KCNK9 antibody (antibody, V domains shown)
VH: EVQLQQSGPELVKPGASVKTSCKASGYSFTGYYMYWVKQSPEKSLEWIGEINPSSGGTTYNQKFKAKATLTVDKSSSTAYMQLKSLTFEDSAVYYCARSGLRRRFYAMDYWGQGTSVTVSS
VL: DIVLTQSPASLAVSLGQRATVSCRASESVDSFGTTFMHWYQQKPGQPPKLLIYRASNLESGIPARFSGSGSRTDFTLTINPVEADDVATYYCQQSNKDPPTFGGGSKLEIK
notes: Variable regions of the mouse anti-KCNK9 monoclonal antibody (mu-mAb) fused with human antibody IgG1 constant regions; also called chimeric antibody; chimeric KCNK9 monoclonal antibody
In turn, B1 came in with an EC50 in assay [1] of around 0.3 mg/L.

B2: afucosyl humanized KCNK9 monoclonal antibody AF-H4L3 (antibody, V domains shown)
VH: QVQLVQSGAEVKKPGASVKVSCKASGYSFTGYYMYWVRQAPGQRLEWMGEINPSSGGTTYNQKFKARVTLTVDKSASTAYMELSSLRSEDTAVYYCARSGLRRRFYAMDYWGQGTLVTVSS
VL: EIVLTQSPATLSLSPGERATLSCRASESVDSFGTTFMHWYQQKPGQPPRLLIYRASNLESGIPARFSGSGSRTDFTLTISSLEPEDFATYYCQQSNKDPPTFGGGTKVEIK
modifications: afucosyl N-glycan on the Fc region (made in fut8-/- CHO cells)
In the case of B2, the “ADCC activity (lysis of KCNK9-expressing HEK293 target cells by NK92-3F9 effector cells)” value with human FcγIII was 100 fold.

B3: afucosyl humanized KCNK9 monoclonal antibody AF-H5L2 (antibody, V domains shown)
VH: B2 VH with M48I, V68A
VL: B2 VL with P47A, T89V
modifications: afucosyl N-glycan on the Fc region (made in fut8-/- CHO cells)
Consider B3, for which, in the assay with human FcγIII, the “ADCC activity (lysis of KCNK9-expressing HEK293 target cells by NK92-3F9 effector cells)” value worked out at 100 fold.

B4: humanized KCNK9 antibody clone H4L3 (antibody, V domains shown)
VH: B2 VH
VL: B2 VL
notes: Variable regions cloned into a human IgG1 expression vector; produced in 293 cells
In the case of B4, in assay [2], the binding result was “binds”.

B5: humanized KCNK9 antibody clone H5L2 (antibody, V domains shown)
VH: B2 VH with M48I, V68A
VL: B2 VL with P47A, T89V
notes: as for B4
Take B5: the binding result in assay [2] is “binds”.

One may read the EC50 as the concentration that produces a half-maximal response.
